Assay results: patent US20240192215A1 (E AND S HEALTHCARE, published 2024)

Assays:
Experiment in all cases: peptide microarray, anti-mouse IgG DyLight 650, MMC2 heatmap (Example 17)
Peptide_059 = molecular target: T1, Peptide_059
T1 peptide: FHSLSEKYSNVIFLE
Protocol: (§1) 5, 1, 0.2, 0.04, 0.008 and 0.0016 μg/mL serial dilutions were incubated on a single multi-well microarray slide at 30° C. for 1 hour. The slide includes 21 individual mini-arrays (one mini-array per sample dilution).
(§2) DyLight 650 was used as a label. False-positive binding to a peptide was evaluated by performing one additional control incubation in which only a secondary antibody was applied on the same microarray slide. Before performing each step, the microarrays were washed with a washing buffer.
(§3) To visualize the obtained results and compare binding regions across individual cultures, as shown in FIGS. 21A to 21D, heatmap diagrams were calculated. In FIGS. 21A to 21D, the fluorescence intensity is expressed in a color-coded manner, white indicates no binding, and red indicates strong binding. For all evaluations, the MMC2-value of the average pixel fluorescence for each peptide was calculated.

Peptide_026 = molecular target: T2, Peptide_026
T2 peptide: TAFQEALDAAGDKLV
Protocol: as §1, §2, §3

Peptide_034 = molecular target: T3, Peptide_034
T3 peptide: AAGDKLVVVDFSATW
Protocol: as §1, §2, §3

Peptide_108 = molecular target: T4, Peptide_108
T4 peptide: GANKEKLEATINELV
Protocol: as §1, §2, §3

Peptide_099 = molecular target: T5, Peptide_099
T5 peptide: KGQKVGEFSGANKEK
Protocol: as §1, §2, §3

Peptide_088 = molecular target: T6, Peptide_088
T6 peptide: VKCMPTFQFFKKGQK
Protocol: as §1, §2, §3

Peptide_008 = molecular target: T7, Peptide_008
T7 peptide: HSQHHHHHHHHVKQI
Protocol: as §1, §2, §3

Peptide_082 = molecular target: T8, Peptide_082
T8 peptide: VASECEVKCMPTFQF
Protocol: as §1, §2, §3

Peptide_002 = molecular target: T9, Peptide_002
T9 peptide: ATAADVHSQHHHHHH
Protocol: as §1, §2, §3

Peptide_079 = molecular target: T10, Peptide_079
T10 peptide: CQDVASECEVKCMPT
Protocol: as §1, §2, §3

Peptide_105 = molecular target: T11, Peptide_105
T11 construct: also called EFSGANKEKLEATIN
T11 peptide: EFSGANKEKLEATIN
Protocol: as §1, §2, §3

Peptide_068 = molecular target: T12, Peptide_068
T12 peptide: NVIFLEVDVDDCQDV
Protocol: as §1, §2, §3

Peptide_081 = molecular target: T13, Peptide_081
T13 peptide: DVASECEVKCMPTFQ
Protocol: as §1, §2, §3

Peptide_090 = molecular target: T14, Peptide_090
T14 peptide: CMPTFQFFKKGQKVG
Protocol: as §1, §2, §3

Peptide_075 = molecular target: T15, Peptide_075
T15 peptide: DVDDCQDVASECEVK
Protocol: as §1, §2, §3

Peptide_029 = molecular target: T16, Peptide_029
T16 peptide: QEALDAAGDKLVVVD
Protocol: as §1, §2, §3

Peptide_005 = molecular target: T17, Peptide_005 (human)
T17 construct: 15-mer on microarray; not native form, recombinant insert region
T17 peptide: ADVHSQHHHHHHHHV
Protocol: as §1, §2, §3

Peptide_010 = molecular target: T18, Peptide_010
T18 peptide: QHHHHHHHHVKQIES
Protocol: as §1, §2, §3

Peptide_070 = molecular target: T19, Peptide_070
T19 peptide: IFLEVDVDDCQDVAS
Protocol: as §1, §2, §3

Peptide_004 = molecular target: T20, Peptide_004 (human)
T20 construct: 15-mer on microarray; not native form, recombinant insert region
T20 peptide: AADVHSQHHHHHHHH
Protocol: as §1, §2, §3

Peptide_038 = molecular target: T21, Peptide_038
T21 peptide: KLVVVDFSATWCGPC
Protocol: as §1, §2, §3

Peptide_080 = molecular target: T22, Peptide_080
T22 peptide: QDVASECEVKCMPTF
Protocol: as §1, §2, §3

Peptide_063 = molecular target: T23, Peptide_063
T23 peptide: SEKYSNVIFLEVDVD
Protocol: as §1, §2, §3

Peptide_011 = molecular target: T24, Peptide_011
T24 peptide: HHHHHHHHVKQIESK
Protocol: as §1, §2, §3

Peptide_071 = molecular target: T25, Peptide_071
T25 construct: also called FLEVDVDDCQDVASE
T25 peptide: FLEVDVDDCQDVASE
Protocol: as §1, §2, §3

Peptide_030 = molecular target: T26, Peptide_030
T26 peptide: EALDAAGDKLVVVDF
Protocol: as §1, §2, §3

Peptide_065 = molecular target: T27, Peptide_065
T27 peptide: KYSNVIFLEVDVDDC
Protocol: as §1, §2, §3

Peptide_066 = molecular target: T28, Peptide_066
T28 peptide: YSNVIFLEVDVDDCQ
Protocol: as §1, §2, §3

B1: monoclonal antibody B264 (antibody, mouse IgG1, kappa, V domains shown)
VH: QVQLQQSGAELARPGASVKMSCKASGYTFTSYTMHWVKQRPGQGLEWIGYINPTSDYTNYNQKFKDKATLTADKSSSTAYMQLSSLTSEDSAVYFCASEGGFLYYFDYWGQGTTLTVSS
VL: DVLMTQTPLSLPVSLGDQASISCRSSQSIVHSNGNTYLEWYLQKPGQSPKLLIYKVSNRFSGVPDRFSGSGSGTDFTLKISRVEAEDLGVYYCFQGSHVPYTFGGGTKLEIKR
notes: also called AB264; B264 (Trx1-mIgG1)
B1: no binding (tested: 5 ug/mL) (Peptide_059); no binding (tested: 5 ug/mL) (Peptide_026); no binding (tested: 5 ug/mL) (Peptide_034). B1: no binding (tested: 5 ug/mL) (Peptide_108); no binding (tested: 5 ug/mL) (Peptide_099); no binding (tested: 5 ug/mL) (Peptide_088). B1: no binding (tested: 5 ug/mL) (Peptide_008); no binding (tested: 5 ug/mL) (Peptide_082); no binding (tested: 5 ug/mL) (Peptide_002). B1: no binding (tested: 5 ug/mL) (Peptide_079); no binding (tested: 5 ug/mL) (Peptide_105); no binding (tested: 5 ug/mL) (Peptide_068). B1: no binding (tested: 5 ug/mL) (Peptide_081); no binding (tested: 5 ug/mL) (Peptide_090); no binding (tested: 5 ug/mL) (Peptide_075). B1: no binding (tested: 5 ug/mL) (Peptide_029); no binding (tested: 5 ug/mL) (Peptide_005); no binding (tested: 5 ug/mL) (Peptide_010). B1: no binding (tested: 5 ug/mL) (Peptide_070); no binding (tested: 5 ug/mL) (Peptide_004); binds (Peptide_038). B1: no binding (tested: 5 ug/mL) (Peptide_080); no binding (tested: 5 ug/mL) (Peptide_063); no binding (tested: 5 ug/mL) (Peptide_011). B1: no binding (tested: 5 ug/mL) (Peptide_071); no binding (tested: 5 ug/mL) (Peptide_030); no binding (tested: 5 ug/mL) (Peptide_065). B1: no binding (tested: 5 ug/mL) (Peptide_066).
